# Data published in patent publication US20210155910, “IMPROVED REVERSE TRANSCRIPTASE AND METHODS OF USE” (YALE UNIVERSITY, published 2021).
# T1: E.r. maturase (MarathonRT) WT (Eubacterium rectale)
# T1 chain: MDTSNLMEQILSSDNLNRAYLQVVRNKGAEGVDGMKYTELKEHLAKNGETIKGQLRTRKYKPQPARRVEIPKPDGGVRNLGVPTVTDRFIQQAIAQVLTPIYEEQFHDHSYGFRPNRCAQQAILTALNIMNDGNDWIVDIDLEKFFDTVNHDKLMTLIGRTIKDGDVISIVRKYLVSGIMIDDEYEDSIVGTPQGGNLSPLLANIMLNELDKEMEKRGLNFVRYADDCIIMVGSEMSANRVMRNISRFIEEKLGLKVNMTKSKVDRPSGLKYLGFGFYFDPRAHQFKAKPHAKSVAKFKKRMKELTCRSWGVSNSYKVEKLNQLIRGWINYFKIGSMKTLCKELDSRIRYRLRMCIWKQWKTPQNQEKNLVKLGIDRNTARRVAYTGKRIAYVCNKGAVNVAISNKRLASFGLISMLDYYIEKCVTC
# Biological target: T1, E.r. maturase (MarathonRT) WT
# Test: indirect: D4A at 16:1 raises primer incorporation on RepA D3 from 84.1% to 93.0%; Tris pH 8.3, 200 mM KCl, 2 mM MgCl2, 0.6 M trehalose
# Settings: tags: N-terminal 6xHis-SUMO, cleaved; hairpin
# Description: The surface of E.r. maturase is enriched with positively charged amino acids, to which primers used for reverse transcription non-specifically binds, and thus the efficiency of primer utilization is compromised. To reduce the non-specific binding, D4A helix (FIG. 12A, originated from E.r. Group II intron) was used in the reaction buffer to block the positively charged residues on the surface of E.r. maturase, attempting to further improve the performance of E.r. maturase in the already optimized buffer (50 mM Tris pH 8.3, 200 mM KCl, 2 mM MgCl₂, 5 mM DTT and 0.6 M trehalose).
binder,measurement,value
D4A helix of E.r. group II intron (ssRNA) RNA: GUCUCGUAUUGCAGAAAUGACAACAUCUGCCGUAACCAAUCGGGUAAAAGGUGGUCAAAUCAAGCGAGAC,binding result,binds
